Patent publication US8846866
Residue numbers refer to the chain shown, from its start.

B1: Mycobacterium tuberculosis formylglycine generating enzyme (Mtb FGE, Rv0712), recombinant wild type (protein)
chain: LTELVDLPGGSFRMGSTRFYPEEAPIHTVTVRAFAVERHPVTNAQFAEFVSATGYVTVAEQPLDPGLYPGVDAADLCPGAMVFCPTAGPVDLRDWRQWWDWVPGACWRHPFGRDSDIADRAGHPVVQVAYPDAVAYARWAGRRLPTEAEWEYAARGGTTATYAWGDQEKPGGMLMANTWQGRFPYRNDGALGWVGTSPVGRFPANGFGLLDMIGNVWEWTTTEFYPHHRIDPPSTACCAPVKLATAADPTISQTLKGGSHLCAPEYCHRYRPAARSPQSQDTATTHIGFRCVADPVSG
B2: Strep FGE Cys272Ser mutant (protein)
chain: AVAAPSPAAAAEPGPAARPRSTRGQVRLPGGEFAMGDAFGEGYPADGETPVHTVRLRPFHIDETAVTNARFAAFVKATGHVTDAERFGSSAVFHLVVAAPDADVLGSAAGAPWWINVRGAHWRRPEGARSDITGRPNHPVVHVSWNDATAYARWAGKRLPTEAEWEYAARGGLAGRRYAWGDELTPGGRWRCNIWQGRFPHVNTAEDGHLSTAPVKSYRPNGHGLWNTAGNVWEWCSDWFSPTYYAESPTVDPHGPGTGAARVLRGGSYLSHDSYCNRYRVAARSSNTPDSSSGNLGFRCANDADLTSGSAAE
B3: Strep FGE Cys277Ser mutant (protein)
chain: B2 chain with S271C, C276S
B4: Streptomyces coelicolor formylglycine generating enzyme (Strep FGE, SCO7548), recombinant wild type (protein)
chain: B2 chain with S271C
B5: Strep FGE Trp234Phe mutant (protein)
chain: B2 chain with W233F, S271C

Target: T1, synthetic 13-residue sulfatase consensus motif peptide LCSPSRGSLFTGR
T1 chain: LCSPSRGSLFTGR

| Protein | conversion of cysteine to FGly in the peptide, by mass spectrometry (FGE activity assay) |
| --- | --- |
| B1 | Recombinant Rv0712 was able to modify a synthetic peptide containing the sulfatase motif as determined by mass spectrometry |
| B2 | serine mutants were unable to generate FGly in vitro |
| B3 | serine mutants were unable to generate FGly in vitro |
| B4 | WT Strep FGE was able to oxidize the synthetic peptide |
| B5 | mutation of Trp234 to Phe did not abolish activity |
